assay: label from the status in PepcDB records

For “SFYLSELEHSLRVPPHLLNLPLEDAIKSVLQNVFLDKVLADLGLCVSIYDIKSVEGGFVLPGDGAATYKVGLRIVVFRPFVGEVIAAKFKESDANGLRLTLGFFDDIYVPAPLMPKPNRCEPDPYNRKQMIWVWEYGEPKEDYIVDDACQIKFRVESISYPSVPTERAEDAKPFAPMVVTGNMDDDGLGPVSWWDSYEQVDQEE”, which protein production is on record?
Its protein production is “failed”.

With “SGGDVNEAYRVETDTDTFFLLVQRGRKESFYAAEIAGLNEFERAGITAPRVIASGEVNGDVYLVMTYLEEGASGSQRQLGQLVAQLHSQQQEEGKFGFSLPYEGGDISFDNHWQDDWRTIFVDKRLDHLKEELLNRGLWDANDIKVYDKVRSQIVEELEKHQSKPSLLHGDLWGGNYMFLKDGRPALFDPAPLYGDREFDIGITTVFGGFTSEFYDAYNKHYPLAKGASYRLEFYRLYLLMV” as the sequence, how does the protein production read?
The protein production was “failed”.

For “SGRLFVRNLSYTSSEEDLEKLFSAYGPLSELHYPIDSLTKKPKGFAFVTFMFPEHAVKAYAEVDGQVFQGRMLHVLPSTIKKEASQ”, which protein production is on record?
Its protein production is “not failed”.

With “SGRPFVEMYSEIPEIIHMTEGRELVIPCRVTSPNITVTLKKFPLDTLIPDGKRIIWDSRKGFIISNATYKEIGLLTCEATVNGHLYKTNYLTHRQTNTIIDVQISTPRPVKLLRGHTLVLNCTATTPLNTRVQMTWSYPDEKNKRASVRRRIDQSNSHANIFYSVLTIDKMQNKDKGLYTCRVRSGPSFKSVNTSVHIYDKAFITVKHR” as the sequence, how does the protein production read?
Its protein production is “not failed”.

Which protein production does the source give for “SKHAKSFKDDMYLRTEHVVWQKEMLTLARLAAAVDMAAADSKDVANSHIFDAMVNQKIKLQNPEVLKKWLGEQTAFDGKKVLAAYESPESQARADKMQELTETFQIDGTPTVIVGGKYKVEFADWESGMNTIDLLADKVREEQKAAQ” here?
Its protein production is “failed”.

With “SKQPTSAENSVAKKEDKVPVKKQKTRTVFSSTQLCVLNDRFQRQKYLSLQQMQELSNILNLSYKQVKTWFQNQRMKSKRWQKNN” as the sequence, how does the protein production read?
Its protein production is “not failed”.

Which protein production does the source give for “SLATCIGEKIEDFKVGNLLGKGSFAGVYRAESIHTGLEVAIKMIDKKAMYKAGMVQRVQNEVKIHCQLKHPSILELYNYFEDSNYVYLVLEMCHNGEMNRYLKNRVKPFSENEARHFMHQIITGMLYLHSHGILHRDLTLSNLLLTRNMNIKIADFGLATQLKMPHEKHYTLCGTPNYISPEIATRSAHGLESDVWSLGCMFYTLLIGRPPFDTDTVKNTLNKVVLADYEMPSFLSIEAKDLIHQLLRRNPADRLSLSSVLDHPFMSRNSSTKSKDEG” here?
The protein production was “not failed”.

For “SLDDHTRDPTVKAPDGNPSGWRTDGQWEHETLRRAVVHGVRLYNSGEFHESHDCFEDEWYNYGRGNTESKFLHGMVQVAAGAYKHFDFEDDDGMRSLFRTSLQYFRGVPNDYYGVDLLDVRTTVTNALSDPSALHGWQIRLDGEYPTCRPEDIEFAESLEH”, which protein production is on record?
The protein production was “not failed”.

Which protein production does the source give for “SLREMLGCCKVYISEARNKTALEAIERALKPFPPAAIVNKFEDAAYGRVGYTVVSSLANGSSSSLKNAVFAMVKTALDTINLELHCGSHPRLGVVDHICFHPLSQTSIEQVSSVANSLAMDIGSILRVPTYLYGAAEKEQCTLDSIRRKLGYFKANREGHEWAGGFDLEMVPLKPDAGPQEVSKAKGVVAVGACGWVSNYNVPVMSNDLKAVRRIARKTSERGGGLASVQTMALVHGEGVIEVACNLLNPSQVGGDEVQGLIERLGREEGLLVGKGYYTDYTPDQIVERYMDLLNNS” here?
The protein production was “failed”.

With “SLSEAGYPRKVMQHAEELHERILSFDSRITVPLDFGTTGNEVDKDGPGQLDLVKAGRGRLSGAALAIFGWPEMWNGPNAPHKPTPGFVDEARHQQEIRYKILTGMVRDFPNQVGIAYSPEDFRRLAMEGKFAIVMSMLNAYPLGDDLSQLDKWAARGVRMFGFSYVGNNDWADSSRPLPFFNDSPDALGGLSPLGKQAVERLNDLGVIIDVSQMSTKALEQVAALSRAPIVASHSAPRALVDIKRNLSDHEMQLIKDSGGVIQVVGFPAYLRPLSKPTLDKLDALRARFDLPPLEGLDYALMPGDPIITIWPEQRFGEYASALYGILEEEPKAGLKELVDAIDYTVKKVGIDHVGISSDFNDGGGVDGWKDVSEIRNVTAELITRGYSDADIAKLWGGNFLRAWGEVQKRAKPTATP” as the sequence, how does the protein production read?
The protein production was “not failed”.

Which protein production does the source give for “SLYDPAEKYFNCTDIQRAFFEAGIKLGAIFHQYTGIPVNSENASMAEEFIERSTMIQPFVENVRISINNVKRSSGTYSYSSLNEKMLHAEVLINYNGKKVLGVLNYDEGLDYPVMYAKEVL” here?
Its protein production is “not failed”.

For “SMSEHSAIVTWKRKDSEAFTDNQYSRAHTWEFDGGSKILASASPHVVPVPLSVEANVDPEEAFVAALSSCHMLVFLSIAAKQRYLVESYTDNAVGILGKNSKGKTSVTKVVLRPQVVFSGTSKPTLQQLEKMHHLAHENCFIANSVETEVVTEII”, which protein production is on record?
The protein production was “not failed”.

For “SNIRLIATDMDGTLTQQGRFSAALLQTLENLKAAGLPILIVTGRSAGWVSGISSLMPIAGAIGENGGLFYPADSEHPLLLTPIADLTGHRQNLALVFQKLKQKFPQIQESGDNRFRITDWTFDVAGLTLAELQLIGNLCQDMGWGFTYSNVQCHIKPQGQEKAIALLQVLQKYFPDYSPTQVVTVGDSPNDESLFNQRYFPLSVGVANVLKYAHQLQHQPSYVTTTAEGEGFCELCSYIL”, which protein production is on record?
Its protein production is “failed”.

With “SNPNDLPDFPEHEYAATQQVGEGVINGDLYLTSASGAIQKGTNTKVALEPATSYMKAYYAKFGNLDAAKRDPDVQPPVLDPRRATYVREATTDQNGRFDFDHIPNGTYYISSELTWSAQSDGKTITEGGTVTKLVTVSGSQPQKVLLTR” as the sequence, how does the protein production read?
The protein production was “not failed”.

Which protein production does the source give for “SNRQVQLMARQQRLKAIEDRLEKFYIPLIKAFSSYVYTAQTEDEIETIITCRRYLAGNNLLRVLPMHFKFKADKIAGSANWTFYAKEDFEQWKEALDVLWEEFLEVLKEYYTLSGTEISLPEKPDWLIGYK” here?
The protein production was “not failed”.

For “SNTPSAEADWSPGLELHPDYKTWGPEQVCSFLRRGGFEEPVLLKNIRENEITGALLPCLDESRFENLGVSSLGERKKLLSYIQRLVQIHVDTMKVI”, which protein production is on record?
The protein production was “not failed”.

With “SPSKVQELSVYEINELDRHSPKILKNAFSLMFGLGDLVPFTNKLYTGDLKKRVGITAGLCVVIEHVPEKKGERFEATYSFYFGDYGHLSVQGPYLTYEDSFLAITGGAGIFEGAYGQVKLQQLVYPTKLFYTFYLKGLANDLPLELTGTPVPPSKDIEPAPEAKALEPSGVISNYTN” as the sequence, how does the protein production read?
The protein production was “failed”.

Which protein production does the source give for “SQGDCSYSRTALYDLLGVPSTATQAQIKAAYYRQCFLYHPDRNSGSAEAAERFTRISQAYVVLGSATLRRKYDRGLLSDEDLRGPG” here?
The protein production was “not failed”.

Which protein production does the source give for “SQLISADGKVFGSYAHSGDNRIYTRYNEISPDLIKALIATEDVRFRKHSGIDSKGLFRAVVKRGILNQKSGGGGSTITQQLAKLLYSPRTETKLGRLFQKPIEWVIAVKLERFYTKEEIITMYLNYFDFLYNAVGIKSAAYTYFGKQPADLKIEEAAVLVGMCKNPAYYNPVLHG” here?
Its protein production is “failed”.

With “SQYKNISEKIVHIIQQEFDTDLTLESIAGRLHYNPNYLSSIFRKEMKISFSEYLSSYRHHIAKNWLTETTMSVKEISEKLKYKNPQNFIRSFKKLEGITPGKYRELKNHS” as the sequence, how does the protein production read?
The protein production was “not failed”.

For “SRFYEQHADCLAEQYTSLKFEDVHASWRAFWPQARDRVLDVGAGSGRDAKWMAEHGCEVIAIEPAQALLRFGKSYCGDSVTWLEDGLPKLEKTINLGFRFDLILVSAVWMHLAPTHRERAFRKLANLLAPNGRLVISLRHGDFSDGRKAYPVSVEELEKFAKNRALMVRNVS”, which protein production is on record?
Its protein production is “failed”.

With “SRPLGEVYLDSSKPAVYNYPEGAAYEFNAAAAANAQVYGQTGLPYGPGSEAAAFGSNGLGGFPPLNSVSPSPLMLLHPPPQLSPFLQPHGQQVPYYLENEPSGYTVREAGPPAFYRPNSDNRRQG” as the sequence, how does the protein production read?
The protein production was “not failed”.

For “SSPIRLSTSNLPMTLTTNTSSGAPNKAFNTSSVNSGNSFSRTTTSSTTTTTERIEIRAEGDGEVDTDSIRKRITERLRRSVSKTISNLAGTPVTNTEEGSRYSRSVSRSVYDDEKSSKRSYSTGEEDIDEEDELEEDQFRSFNVTRKSATPAEISCRQLKAPREFGGWLGAFLFLLLLPTAVYYLTWSCTARNACQFKHLNLGILLDVNYLTRQVFQPRVVGAFAAYQVVVFLLVALLPGRRVHLTRETYKFNCLAVSLTLLIASGVAEYLKYPVVTFVLRHYLRFCIFGLVGAFVAAAW”, which protein production is on record?
The protein production was “failed”.

With “SSPPSGCPMHEGKMKGCPVNTEPSGPTCEKKTYSVPAHQERAYEYVECPIRGTAAENKENLDPSNLMPPPNQTPAPDQPFALSTVREESSIPRADSEKKWVYPSEQMFWNAMLKKGWKWKDEDISQKDMYNIIRIHNQNNEQAWKEILKWEALHAAECPCGPSLIRFGGKAKEYSPRARIRSWMGYELPFDRHDWIINRCGTEVRYVIDYYDGGEVNKDYQFTILDVRPALDSLSAVWDRMKVAWWRWTS” as the sequence, how does the protein production read?
The protein production was “failed”.

With “SSQPVISAQEQETQIVLYGKLVEARQKHANKMDVPPAILATNKILVDMAKMRPTTVENVKRIDGVSEGKAAMLAPLWEVIKHFCQTNSVQTDLFSSTKPQ” as the sequence, how does the protein production read?
The protein production was “not failed”.

With “SSRRRRIVAAARDYVLAHRSRPVGVPELCEQLHVSRRTLQYCFQDVLGMAPATYLRALRLNGVRRDLRGRAADSVQDVAAAWGFWHLSQFATDYRRMFGARPSETLRGALA” as the sequence, how does the protein production read?
Its protein production is “failed”.

With “SSSKGISNALKDLVEDFERELGRMLSPFELEDLQKTVSDDKTDPDLVRSALREAVFNGKTNWNYIQAILRNWRHEGI” as the sequence, how does the protein production read?
The protein production was “failed”.

Which protein production does the source give for “STGNAGEWCLMESDPGVFTELIKGFGCRGAQVEEIWSLEPENFEKLKPVHGLIFLFKWQPGEEPAGSVVQDSRLDTIFFAKQVINNACATQAIVSVLLNCTHQDVHLGETLSEFKEFSQSFDAAMKGLALSNSDVIRQVHNSFARQQMFEFDTKTSAKEEDAFHFVSYVPVNGRLYELDGLREGPIDLGACNQDDWISAVRPVIEKRIQKYSEGEIRFNLMAIVSDRKMIYEQKIAELQRQLAEEPMDTDQGNSMLSAIQSEVAKNQMLIEEEVQKLKRYKIENIRRKHNYLPFIMELLKTLAEHQQLIPLVEKAKEKQNAKKAQETK” here?
The protein production was “not failed”.

Which protein production does the source give for “STHKLIRQDNSELIYYLDKQAEHNKTLLVLMQGSDCNSIKNNTFIQETFGRWLPSSDVLMVEKYGITAQLTYSDDNGEREDCPKNYKLHDNPNQRLADYLAVLDKLSPNYTNIVLLGGSEGATMVHLVVAERHDISAAIALNGGGRFFLDDVLYNIRNTTPKEHVEEAINSFQQLANAIITNQIGDEQFVSEHSKLWWQQYLAIDLLEVIKRNTQTPVLIVQTLDDINVDVAAFHQLSQEITQPNVTFIKYDKLNHGFYNQQGERLTGKVVQDIQQWYAQYNK” here?
Its protein production is “not failed”.

Which protein production does the source give for “STITYYRTDLFKQAGLSMPERPTWTQLGEFAAKLHQPDKGVYGMCLRGKAGWGENIALLSTMANAFGARWFDEHWKPELNSPEWANAANFYVNTLKNYGPPGVSSNGFNETLALFNSGKCALWVDASVAGSFTTDKEQSKVVDSVGFAPAPVEVTDKGSSWLYAWSLAIPATSRHKDAAKAFITWATSKAYIQLVAEKDGITNVPPGTRTSTYSEA” here?
The protein production was “failed”.

Which protein production does the source give for “STMTVIKDYYALKENEICVSQSEVVQVLAVNQQNMCLVYQPASDHSPAAKGWVPGSILAPF” here?
The protein production was “not failed”.

For “STQYMELNQRDEKSPFRNANLRKAISYSIDRKALVESILGDGSIEPNGLVPADMAKDPSGGKDFAKEAGSQIEYDTKKAKEYWEKAKKELGISTLTMDILSSDADSSKKTVEFVQGSIQDALDGVKVTVSPVPFSVRLDRSNKGDFDAVIGGWSADYADPSSFLDLFASDNSYNRGRYNNAEFDKFVKAASSADATDPEKRWDDMLNAEKTIMGDMGVVPLFQKS”, which protein production is on record?
Its protein production is “not failed”.

Reference: a protein production outcome set (Wang et al. 2014)
